{
  "source": "paper PMC7504384",
  "about": "“Insight into the Folding and Dimerization Mechanisms of the N-Terminal Domain from Human TDP-43” (International Journal of Molecular Sciences, 2020)",
  "proteins": {"B1": {"name": "N-terminal domain of human TDP-43 (NTD_(1–77)) (domain or fragment, UniProt Q13148 1-77, looked up)", "chain": "MSEYIRVTEDENDEPIEIPSEDDGTVLLSTVTAQFPGACGLRYRNPVSQCMRGVRLVEGILHAPDAGWGNLVYVVNY", "notes": "devoid of any tag; calculated mass 8.53 kDa; Cloning, expression and purification are told only in the Supplementary Materials; also called NTD TDP-43; wild-type protein; source: purified as described in the Supplementary Materials (>95% pure)"}},
  "key": {"[1]": {"biological_target": "the molecule itself", "test": "dynamic light scattering; 0.5 mg/mL (58.7 µM) NTD in 5 mM sodium phosphate buffer, 50 mM NaCl, 1 mM DTT, pH 7.4, 25 °C, no urea; hydrodynamic diameter compared with values calculated for monomer and dimer"}, "[2]": {"biological_target": "the molecule itself", "test": "SEC; analytical gel filtration, Superdex 200 Increase 10/300 GL, 4 °C, 5 mM phosphate buffer, 50 mM NaCl, pH 7.4, without DTT; 100 µL of 0.5 mg/mL (58.7 µM) NTD loaded; masses from a calibration curve; also run with 150 mM NaCl without DTT"}},
  "data": [
    {"protein": "B1", "values": [
      {"measurement": "stoichiometry N", "setting": "[1]", "result": 2},
      {"measurement": "stoichiometry N", "setting": "[2]", "result": 4}
    ]}
  ]
}
